According to patent publication US20200079844A1 (Ablynx, published 2020):
Where two headings read alike, the source gives them in different places.

What was measured:
human TNFα [1] = biological target: T1, human TNFα (human, UniProt P01375 77-233)
T1 construct: Biotinylated in the ELISAs, amine-coupled to CM5 in Biacore; also called human TNF-alpha; hTNF-alpha

human TNFα [2] = biological target: T1, human TNFα; experiment: competition ELISA, biotinylated human TNFα pre-incubated with nanobody, binding to coated Enbrel; 50% inhibition
human TNFα [3] = biological target: T1, human TNFα; experiment: cell-based or functional assay
rhesus TNFα = rhesus TNFα (rhesus, UniProt P48094 77-233); experiment: cell-based or functional assay
rhesus TNFα, sequence (P48094 77-233 limits assumed): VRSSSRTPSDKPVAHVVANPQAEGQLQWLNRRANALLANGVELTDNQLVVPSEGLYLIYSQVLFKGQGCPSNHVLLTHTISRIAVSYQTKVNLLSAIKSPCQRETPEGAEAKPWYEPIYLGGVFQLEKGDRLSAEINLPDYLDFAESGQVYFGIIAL

human TNFα [4] = biological target: T1, human TNFα; experiment: cell-based or functional assay; remark: listed apart in the source
human TNFα [5] = biological target: T1, human TNFα; experiment: cell-based or functional assay; remark: listed apart in the source
human TNFα [6] = biological target: T1, human TNFα; experiment: cell-based or functional assay; remark: listed apart in the source
human TNFα [7] = biological target: T1, human TNFα; remark: listed apart in the source
human TNFα [8] = biological target: T1, human TNFα; experiment: ELISA on biotinylated human TNFα captured on neutravidin (as Example 10); untreated reference and mildly treated samples
human TNFα [9] = biological target: T1, human TNFα; remark: listed apart in the source
mouse serum albumin = biological target: T2, mouse serum albumin (mouse, UniProt P07724 25-608)
T2 construct: On the Biacore chip; also called mouse albumin
T2 sequence (P07724 25-608 limits assumed): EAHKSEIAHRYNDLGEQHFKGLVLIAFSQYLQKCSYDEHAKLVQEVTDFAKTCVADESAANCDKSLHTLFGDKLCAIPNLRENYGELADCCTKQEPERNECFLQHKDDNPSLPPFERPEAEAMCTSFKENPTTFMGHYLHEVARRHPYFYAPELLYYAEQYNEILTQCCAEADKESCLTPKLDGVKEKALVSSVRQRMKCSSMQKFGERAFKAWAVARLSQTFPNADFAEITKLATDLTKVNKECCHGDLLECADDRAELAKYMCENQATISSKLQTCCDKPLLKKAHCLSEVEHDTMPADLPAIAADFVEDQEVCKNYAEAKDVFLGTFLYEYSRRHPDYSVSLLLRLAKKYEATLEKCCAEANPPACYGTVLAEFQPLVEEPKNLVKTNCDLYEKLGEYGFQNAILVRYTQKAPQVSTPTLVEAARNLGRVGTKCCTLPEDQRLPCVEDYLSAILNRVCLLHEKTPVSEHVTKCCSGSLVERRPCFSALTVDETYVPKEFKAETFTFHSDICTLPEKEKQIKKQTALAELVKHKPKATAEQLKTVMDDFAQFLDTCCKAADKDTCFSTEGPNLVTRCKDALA

human serum albumin = biological target: T3, human serum albumin (human, UniProt P02768 25-609)
T3 construct: On the Biacore chip; also called human albumin

rhesus serum albumin = biological target: T4, rhesus serum albumin (rhesus, UniProt Q28522 17-600)
T4 construct: On the Biacore chip; also called rhesus albumin
T4 sequence (Q28522 17-600 limits assumed): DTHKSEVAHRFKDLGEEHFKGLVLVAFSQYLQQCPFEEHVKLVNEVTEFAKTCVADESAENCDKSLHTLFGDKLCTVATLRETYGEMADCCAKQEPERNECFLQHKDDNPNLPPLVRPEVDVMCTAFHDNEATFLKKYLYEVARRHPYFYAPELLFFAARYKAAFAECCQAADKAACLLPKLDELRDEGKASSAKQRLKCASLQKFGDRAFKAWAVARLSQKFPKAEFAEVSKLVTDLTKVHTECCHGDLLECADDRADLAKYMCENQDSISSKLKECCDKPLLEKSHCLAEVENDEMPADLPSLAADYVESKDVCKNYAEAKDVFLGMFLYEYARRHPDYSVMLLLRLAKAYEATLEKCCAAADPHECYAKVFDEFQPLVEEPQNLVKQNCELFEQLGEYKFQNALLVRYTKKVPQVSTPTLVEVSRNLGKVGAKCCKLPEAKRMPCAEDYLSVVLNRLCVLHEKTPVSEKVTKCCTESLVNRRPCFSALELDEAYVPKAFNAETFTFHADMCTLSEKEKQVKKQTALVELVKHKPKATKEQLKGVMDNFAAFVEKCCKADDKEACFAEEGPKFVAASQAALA

T1 sequence (P01375 77-233 limits assumed): as the sequence (P48094 77-233 limits assumed) above, with T44R, N72T, L138R counted along it

B1: PMP1G11 (VHH)
VHH: QVQLQESGGGMVQPGGSLRLSCAASGFDFGVSWMYWVRQAPGKGLEWVSEINTNGLITKYPDSVKGRFTISRDNAKTTLYLQMNSLKPEDTALYYCARSPSGSFRGQGTQVTVSS
notes: Tested as unpurified protein
koff (human TNFα [1]): 0.00115 s⁻¹

B2: PMP1H6 (VHH)
VHH: EVQLVESGGGLVQPGGSLRLSCATSGFDFSVSWMYWVRQAPGKGLEWVSEINTNGLITKYVDSVKGRFTISRDNAKNTLYLQMDSLIPEDTALYYCARSPSGSFRGQGTQVTVSS
notes: Tested as unpurified protein
koff (human TNFα [1]): 0.00214 s⁻¹

B3: TNF2-GS9-TNF2 (TNF5) (VHH)
chain: QVQLVESGGGLVQAGGSLRLSCAASGRTFSEPSGYTYTIGWFRQAPGKEREFVARIYWSSGLTYYADSVKGRFTISRDIAKNTVDLLMNSLKPEDTAVYYCAARDGIPTSRSVGSYNYWGQGTQVTVSSGGGGSGGGSQVQLVESGGGLVQAGGSLRLSCAASGRTFSEPSGYTYTIGWFRQAPGKEREFVARIYWSSGLTYYADSVKGRFTISRDIAKNTVDLLMNSLKPEDTAVYYCAARDGIPTSRSVGSYNYWGQGTQVTVSS
notes: Bivalent nanobody, 9 AA GlySer linker
IC50 (human TNFα [2]): 6.3 ng/mL
EC50 in nM; alphaKYM cell assay (10000 c/w), human TNFa @ 1 ng/ml (human TNFα [3]): 0.008 nM
EC50 in nM (mean); L929s + Act D cytotoxicity assay, rhesus TNFa @ 0.5 ng/ml (rhesus TNFα): 35 nM
EC50 in nM (mean); L929s + Act D cytotoxicity assay, human TNFa @ 0.5 ng/ml (human TNFα [4]): 0.02 nM

B4: TNF20 (TNF3 HUM1) (VHH)
VHH: EVQLVESGGGLVQPGGSLRLSCAASGRSLSNYYMGWFRQAPGKGRELLGNISWRGYNIYYKDSVKGRFTISRDDSKNTIYLQMNSLKPEDTAVYYCAASILPLSDDPGWNTYWGQGTQVTVSS
EC50 in nM (mean); L929s + Act D cytotoxicity assay, human TNFa @ 0.5 ng/ml (human TNFα [5]): 0.38 nM
EC50 in nM (mean); L929s + Act D cytotoxicity assay, human TNFa @ 0.5 ng/ml (human TNFα [6]): 0.38 nM

B5: TNF33 (TNF3 HUM1) (VHH)
VHH: EVQLVESGGGLVQPGGSLRLSCAASGRSLSNYYMGWFRQAPGKGRELLGNISWRGYNIYYKDSVKGRFTISRDDSKNTIYLQMNSLRPEDTAVYYCAASILPLSDDPGWNTYWGQGTLVTVSS
EC50 in nM (mean); L929s + Act D cytotoxicity assay, human TNFa @ 0.5 ng/ml (human TNFα [5]): 0.3 nM

B6: TNF22 (TNF3 HUM3) (VHH)
VHH: EVQLVESGGGLVQPGGSLRLSCAASGRSLSNYYMGWFRQAPGKGRELLGNISWRGYNIYYKDSVKGRFTISRDDSKNTIYLQMNSLKTEDTAVYYCAASILPLSDDPGWNTYWGQGTQVTVSS
EC50 in nM (mean); L929s + Act D cytotoxicity assay, human TNFa @ 0.5 ng/ml (human TNFα [5]): 0.303 nM
EC50 in nM (mean); L929s + Act D cytotoxicity assay, human TNFa @ 0.5 ng/ml (human TNFα [6]): 0.303 nM

B7: TNF21 (TNF3 HUM2) (VHH)
VHH: EVQLVESGGGLVQPGGSLRLSCAASGFTFSNYYMGWFRQAPGKGRELLGNISWRGYNIYYKDSVKGRFTISRDDSKNTIYLQMNSLKPEDTAVYYCAASILPLSDDPGWNTYWGQGTQVTVSS
EC50 in nM (mean); L929s + Act D cytotoxicity assay, human TNFa @ 0.5 ng/ml (human TNFα [5]): 0.889 nM
EC50 in nM (mean); L929s + Act D cytotoxicity assay, human TNFa @ 0.5 ng/ml (human TNFα [6]): 0.889 nM

B8: TNF23 (TNF3 HUM4) (VHH)
VHH: EVQLVESGGGLVQPGGSLRLSCAASGRSLSNYYMGWFRQAPGKGRELLGNISWRGYNIYYKDSVKGRFTISRDDSKNTIYLQMNSLKPEDTAVYYCAASILPLSDDPGWNTYWGQGTLVTVSS
EC50 in nM (mean); L929s + Act D cytotoxicity assay, human TNFa @ 0.5 ng/ml (human TNFα [5]): 0.3 nM
EC50 in nM (mean); L929s + Act D cytotoxicity assay, human TNFa @ 0.5 ng/ml (human TNFα [6]): 0.3 nM

B9: PMP1H2 (VHH)
VHH: QVKLEESGGGLVQPGDSLRLSCAASGRTFSDYSGYTYTVGWFRQAPGKEREFVARIYWSSGNTYYADSVKGRFTISRDIAKNTVDLLMNNLEPEDTAVYYCAARDGIPTSRSVESYNYWGQGTQVTVSS
notes: Tested as unpurified protein
koff (human TNFα [1]): 0.00365 s⁻¹

B10: TNF15 (TNF2 HUM1) (VHH)
VHH: EVQLVESGGGLVQPGGSLRLSCAASGRTFSEPSGYTYTIGWFRQAPGKGREFVARIYWSSGLTYYADSVKGRFTISRDIAKNTVDLQMNSLKPEDTAVYYCAARDGIPTSRSVGSYNYWGQGTQVTVSS
notes: Humanised TNF2, first round
koff (human TNFα [7]): 0.00054 s⁻¹
EC50 in nM (mean); L929s + Act D cytotoxicity assay, human TNFa @ 0.5 ng/ml (human TNFα [5]): 5.9 nM
EC50 in nM (mean); L929s + Act D cytotoxicity assay, human TNFa @ 0.5 ng/ml (human TNFα [6]): 1.67 nM

B11: TNF16 (TNF2 HUM2) (VHH)
VHH: EVQLVESGGGLVQPGGSLRLSCAASGFTFSEPSGYTYTIGWFRQAPGKGREFVARIYWSSGLTYYADSVKGRFTISRDIAKNTVDLQMNSLKPEDTAVYYCAARDGIPTSRSVGSYNYWGQGTQVTVSS
notes: Humanised TNF2, first round
koff (human TNFα [7]): 0.00066 s⁻¹
EC50 in nM (mean); L929s + Act D cytotoxicity assay, human TNFa @ 0.5 ng/ml (human TNFα [5]): 2.42 nM
EC50 in nM (mean); L929s + Act D cytotoxicity assay, human TNFa @ 0.5 ng/ml (human TNFα [6]): 1.9 nM

B12: TNF17 (TNF2 HUM3) (VHH)
VHH: EVQLVESGGGLVQPGGSLRLSCAASGRTFSEPSGYTYTIGWFRQAPGKGREFVARIYWSSGLTYYADSVKGRFTISRDNAKNTVDLQMNSLKPEDTAVYYCAARDGIPTSRSVGSYNYWGQGTQVTVSS
notes: Humanised TNF2, first round
koff (human TNFα [7]): 0.0011 s⁻¹
EC50 in nM (mean); L929s + Act D cytotoxicity assay, human TNFa @ 0.5 ng/ml (human TNFα [5]): 7.55 nM
EC50 in nM (mean); L929s + Act D cytotoxicity assay, human TNFa @ 0.5 ng/ml (human TNFα [6]): 3.02 nM

B13: PMP3G2 (VHH)
VHH: AVQLVESGGGLVQPGDSLRLSCAASGRTFSDYSGYTYTVGWFRQAPGKEREFVARIYWSSGNTYYADSVKGRFTISRDIAKNTVDLLMNNLEPEDTAVYYCAARDGIPTSRSVESYNYWGQGTQVTVSS
notes: Tested as unpurified protein
koff (human TNFα [1]): 0.0109 s⁻¹

B14: TNF19 (TNF2 HUM5) (VHH)
VHH: EVQLVESGGGLVQPGGSLRLSCAASGRTFSEPSGYTYTIGWFRQAPGKGREFVARIYWSSGLTYYADSVKGRFTISRDIAKNTVDLQMNSLKPEDTAVYYCAARDGIPTSRSVGSYNYWGQGTLVTVSS
notes: Humanised TNF2, first round
koff (human TNFα [7]): 0.00079 s⁻¹
EC50 in nM (mean); L929s + Act D cytotoxicity assay, human TNFa @ 0.5 ng/ml (human TNFα [5]): 7.37 nM
EC50 in nM (mean); L929s + Act D cytotoxicity assay, human TNFa @ 0.5 ng/ml (human TNFα [6]): 2.19 nM

B15: TNF32 (TNF2 HUM2) (VHH)
VHH: EVQLVESGGGLVQPGGSLRLSCAASGFTFSEPSGYTYTIGWFRQAPGKGREFVARIYWSSGLTYYADSVKGRFTISRDIAKNTVDLQMNSLRPEDTAVYYCAARDGIPTSRSVGSYNYWGQGTLVTVSS
notes: Humanised TNF2, second round; tags not restated
EC50 (read off the curve) (human TNFα [8]): ~10 ng/mL
koff (human TNFα [9]): 0.00084 s⁻¹
EC50 in nM (mean); L929s + Act D cytotoxicity assay, human TNFa @ 0.5 ng/ml (human TNFα [5]): 2.51 nM

B16: TNF18 (TNF2 HUM4) (VHH)
VHH: EVQLVESGGGLVQPGGSLRLSCAASGRTFSEPSGYTYTIGWFRQAPGKGREFVARIYWSSGLTYYADSVKGRFTISRDIAKNTVDLQMNSLRPEDTAVYYCAARDGIPTSRSVGSYNYWGQGTQVTVSS
notes: Humanised TNF2, first round
koff (human TNFα [7]): 0.0007 s⁻¹
EC50 in nM (mean); L929s + Act D cytotoxicity assay, human TNFa @ 0.5 ng/ml (human TNFα [5]): 3.13 nM
EC50 in nM (mean); L929s + Act D cytotoxicity assay, human TNFa @ 0.5 ng/ml (human TNFα [6]): 1.51 nM

B17: TNF31 (TNF2 HUM1) (VHH)
VHH: EVQLVESGGGLVQPGGSLRLSCAASGFTFSEPSGYTYTIGWFRQAPGKGREFVARIYWSSGLTYYADSVKGRFTISRDIAKNTVDLQMNSLRPEDTAVYYCAARDGIPTSRSVGSYNYWGQGTQVTVSS
notes: as for B15
EC50 (read off the curve) (human TNFα [8]): ~10 ng/mL
koff (human TNFα [9]): 0.00063 s⁻¹
EC50 in nM (mean); L929s + Act D cytotoxicity assay, human TNFa @ 0.5 ng/ml (human TNFα [5]): 2.19 nM

B18: PMP6 G8 (VHH)
VHH: AVQLVESGGGLVQPGGSLRLTCTASGFTFRSFGMSWVRQAPGKDQEWVSAISADSSTKNYADSVKGRFTISRDNAKKMLYLEMNSLKPEDTAVYYCVIGRGSPSSPGTQVTVSS
notes: serum albumin nanobody, class A
binding result (mouse serum albumin): binds
binding result (human serum albumin): binds
binding result (rhesus serum albumin): binds

B19: PMP6 A5 (VHH)
VHH: QVQLAESGGGLVQPGGSLRLTCTASGFTFGSFGMSWVRQAPGEGLEWVSAISADSSDKRYADSVKGRFTISRDNAKKMLYLEMNSLKSEDTAVYYCVIGRGSPASQGTQVTVSS
notes: as for B18
binding result (mouse serum albumin): binds
binding result (human serum albumin): binds
binding result (rhesus serum albumin): binds

B20: PMP6 G7 (VHH)
VHH: QVQLVESGGGLVQPGGSLRLSCAASGFTFSNYWMYWVRVAPGKGLERISRDISTGGGYSYYADSVKGRFTISRDNAKNTLYLQMNSLKPEDTALYYCAKDREAQVDTLDFDYRGQGTQVTVSS
notes: serum albumin nanobody, class D
binding result (human serum albumin): binds
binding result (rhesus serum albumin): binds

B21: PMP6B4 (VHH)
VHH: EVQLVESGGGLVQEGGSLRLACAASERIWDINLLGWYRQGPGNERELVATITVGDSTSYADSVKGRFTISRDYDKNTLYLQMNSLRPEDTGLYYCKIRRTWHSELWGQGTQVTVSS
notes: Class C serum albumin nanobody; tested as unpurified protein
binding result (mouse serum albumin): binds
binding result (human serum albumin): binds
binding result (rhesus serum albumin): binds

B22: PMP6C1 (VHH)
VHH: AVQLVDSGGGLVQPGGSLRLSCAASGFSFGSFGMSWVRQYPGKEPEWVSSINGRGDDTRYADSVKGRFSISRDNAKNTLYLQMNSLKPEDTAEYYCTIGRSVSRSRTQGTQVTVSS
notes: Class B serum albumin nanobody; tested as unpurified protein
binding result (mouse serum albumin): binds
binding result (human serum albumin): binds
binding result (rhesus serum albumin): binds
